What was measured:
[1] = target: JAM-A C-terminal 10mer peptide, N-terminally biotinylated; test: BLI
[2] = target: nectin-1 C-terminal 10mer peptide, N-terminally biotinylated; test: BLI
[3] = target: JAM-A C-terminal 10mer peptide, N-terminally FITC-conjugated; test: fluorescence polarisation
[4] = target: nectin-1 C-terminal 10mer peptide, N-terminally FITC-conjugated; test: fluorescence polarisation

Kd [1]: 5 µM | bond lifetime [1]: 0.65 s | Kd [2]: 3000 nM | bond lifetime [2]: 1.2 s | Kd [3]: 5 µM | Kd [4]: 3000 nM
B1: human afadin PDZ domain (domain or fragment)
chain: IITVTLKKQNGMGLSIVAAKGAGQDKLGIYVKSVVKGGAADVDGRLAAGDQLLSVDGRSLVGLSQERAAELMTRTSSVVTLEVAKQG

Source: article doi:10.1101/2023.09.24.559210
